Where a chain is given by its changes, count along the chain named.
T1: biotinylated cynomolgus monkey VWF cysteine knot (CK) domain construct (cynomolgus monkey, biotinylated in vitro (BirA) on the biotinylation tag; one N-glycan)
T1 construct: Expressed in HEK293 EBNA cells; disulfide-linked homodimer; also called cyno VWF CK; cyno VWF CK domain; not shown: in vitro biotinylation tag, HRV-3C site and 3 VWF residues before the CK domain
T1 chain: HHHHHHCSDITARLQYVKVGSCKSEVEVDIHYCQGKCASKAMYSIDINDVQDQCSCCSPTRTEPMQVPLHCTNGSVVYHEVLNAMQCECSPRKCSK

T2: biotinylated human VWF cysteine knot (CK) domain construct (human, biotin on the in vitro biotinylation tag (residue not stated); one N-glycan)
T2 construct: Disulfide-linked homodimer; also called biotinylated human VWF CK domain; human VWF CK domain construct
T2 chain: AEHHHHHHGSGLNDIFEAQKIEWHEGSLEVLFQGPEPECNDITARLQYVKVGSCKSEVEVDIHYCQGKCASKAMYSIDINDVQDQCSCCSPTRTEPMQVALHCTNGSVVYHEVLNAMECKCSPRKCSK

B1: 9312_Lib8_scFv (scFv)
scFv: EVQLVESGGGLVQPGRSLRLSCAASGFSLSTYDMHWVRQAPGKGLEWVSAISSSGDTRDYADSVEGRFTISRDNAKNSLYLQMNSLRAEDTAVYYCARAFWGGDAFDIWGQGTMVTVSSSGGSTITSYNVYYTKLSSSGTDIQMTQSPSSLSASVGDRVTITCRASQTIGYWLAWYQQKPGKAPKLLIYGASTLEGGVPSRFSGSGSGTDFTLTISSLQPEDVATYYCQHSYSAPPTFGGGTKVEIK
notes: VH-linker-VL; not shown: C-terminal 3xFLAG and SV5 tags
B2: 1675_Lib1_scFv (scFv)
scFv: QVQLVQSGAEVKKPGASVKVSCKVSGVTLTSSAISWVRQAPGKGLEWMGGITPIFGTPIYAQKFQGRVTMTEDTSTDTAYMELSSLKSEDTAVYYCATDYGYPFWAFDIWGQGTMVTVSSSGGSTITSYNVYYTKLSSSGTDIQMTQSPSSVSASVGDRVTITCRASQGIYSALAWYQQKPGKAPKLLIYESSKRPSGVPSRFSGSGSGTDFTLTISSLQPEDFANYYCEQYASSPPTFGGGTKVEIK
notes: as for B1
B3: 17561_Lib6_scFv (scFv)
scFv: EVQLVQSGAEVKKPGASVKVSCKASGYTFTDLPISWVRQAPGQGLEWMGWINPYTGDTNYAQKLQGRGTMTTDPSTSTAYMELRSLRSDDTAVYYCARDGVILGYYYYYGMDVWGQGTTVTVSSSGGSTITSYNVYYTKLSSSGTESALTQPASVSGSPGQSITISCTGTDLGSKSVSWYQQHPGKAPKLMIYDNFNRPSGVSNRFSGSKSGNTASLTISGLQAEDEADYYCSSRTVSGTYVFGGGTKLTVL
notes: as for B1
B4: Lib1_P1_A9_scFv (scFv)
scFv: QVQLVQSGAEVKKPGASVKVSCKVSGDTLSSYGIHWVRQAPGKGLEWMGGSIPSFGTAIYAQKFQGRVTMTEDTSTDTAYMELSSLKSEDTAVYYCTSEGPWLPFFSFDYWGQGTLVTVSSSGGSTITSYNVYYTKLSSSGTDIQMTQSPSSVSASVGDRVTITCRASQGISRNLAWYQQKPGKAPKLLIYKASSLASGVPSRFSGSGSGTDFTLTISSLQPEDFANYYCQQSFSTPVTFGGGTKVEIK
notes: as for B1
B5: Lib1_P1_G3_scFv (scFv)
scFv: QVQLVQSGAEVKKPGASVKVSCKVSGYTSRQYIHWVRQAPGKGLEWMGWVTPIFGTTNYAQKFQGRVTMTEDTSTDTAYMELSSLKSEDTAVYYCAREWTGTTAFDIWGQGTLVTVSSSGGSTITSYNVYYTKLSSSGTDIQMTQSPSSVSASVGDRVTITCRASQDIGHYLAWYQQKPGKAPKLLIYAASNRASGVPSRFSGSGSGTDFTLTISSLQPEDFANYYCQQGYSAPYGFGGGTKVEIK
notes: as for B1
B6: 4761_Lib8_scFv (scFv)
scFv: EVQLVESGGGLVQPGRSLRLSCAASGFTFSSDTMHWVRQAPGKGLEWVSAISSSGDHTDYADSVEGRFTISRDNAKNSLYLQMNSLRAEDTAVYYCAREGLRGYYFDYWGQGTLVTVSSSGGSTITSYNVYYTKLSSSGTDIQMTQSPSSLSASVGDRVTITCRASQGISGHLAWYQQKPGKAPKLLIYAASALQSGVPSRFSGSGSGTDFTLTISSLQPEDVATYYCQQSHSLPWTFGGGTKVEIK
notes: as for B1
B7: 9301_Lib8_scFv (scFv, not shown: small tags and cut ends)
scFv: EVQLVESGGGLVQPGRSLRLSCAASGFNFHNYDMHWVRQAPGKGLEWVSAISGSGYTADYADSVEGRFTISRDNAKNSLYLQMNSLRAEDTAVYYCAKSHSSGWSSAFDIWGQGTMVTVSSSGGSTITSYNVYYTKLSSSGTDIQMTQSPSSLSASVGDRVTITCRASQTIGYWLAWYQQKPGKAPKLLIYDASVPESGVPSRFSGSGSGTDFTLTISSLQPEDVATYYCQQTLSSPWTFGGGTKVEIK
B8: 9621_Lib8_scFv (scFv, not shown: small tags and cut ends)
scFv: EVQLVESGGGLVQPGRSLRLSCAASGFSFSMYAMHWVRQAPGKGLEWVSAISPSGDATDYADSVEGRFTISRDNAKNSLYLQMNSLRAEDTAVYYCARGMQDYGHYYYYYMDVWGKGTTVTVSSSGGSTITSYNVYYTKLSSSGTDIQMTQSPSSLSASVGDRVTITCRASQDISTSLAWYQQKPGKAPKLLIYGASSLETGVPSRFSGSGSGTDFTLTISSLQPEDVATYYCQQGYIAPRTFGGGTKVEIK
B9: Lib4_P2_A5_scFv (scFv, not shown: small tags and cut ends)
scFv: QVQLQESGPGLVKPSQTLSLTCTVSGSSISSSSDYWSWIRQPPGKGLEWIGYIDISGDADYNPSLKSRVTMSVDTSKNQFSLKVNSVTAADTAVYYCARHLSSGWYGTYYFDYWGQGTLVTVSSSGGSTITSYNVYYTKLSSSGTEIVMTQSPATLSLSPGERATLSCRASQNIHSNLAWYQQKPGQAPRLLIYDASSRATGIPARFSGSGSGTDFTLTISSLEPEDFAVYYCQQGYTKPLTFGGGTKVEIK
B10: 1374_Lib8_scFv (scFv, not shown: small tags and cut ends)
scFv: EVQLVESGGGLVQPGRSLRLSCAASGVDFSTYAMHWVRQAPGKGLEWVSAISSSGAYTDYADSVEGRFTISRDNAKNSLYLQMNSLRAEDTAVYYCATDRGPFSGYGTQGWFDPWGQGTLVTVSSSGGSTITSYNVYYTKLSSSGTDIQMTQSPSSLSASVGDRVTITCRASQTIRSYLAWYQQKPGKAPKLLIYGASDLQSGVPSRFSGSGSGTDFTLTISSLQPEDVATYYCQQYANFPITFGGGTKVEIK
B11: 1405_Lib8_scFv (scFv, not shown: small tags and cut ends)
scFv: B10 scFv with Q173R, T174D, R176T, G196H, D199T, Q201E, S202A, A238G, N239D, I242P
B12: 4142_Lib1_scFv (scFv, not shown: small tags and cut ends)
scFv: QVQLVQSGAEVKKPGASVKVSCKVSGYPFTSSGIHWVRQAPGKGLEWMGGVIPLFGTANYAQKFQGRVTMTEDTSTDTAYMELSSLKSEDTAVYYCARIRVSSGWYRDYGMDVWGQGTTVTVSSSGGSTITSYNVYYTKLSSSGTDIQMTQSPSSVSASVGDRVTITCRASQDITNDLAWYQQKPGKAPKLLIYDASRLQSGVPSRFSGSGSGTDFTLTISSLQPEDFANYYCQQTFTTPLTFGGGTKVEIK
B13: Lib1_P1_C6_scFv (scFv, not shown: small tags and cut ends)
scFv: QVQLVQSGAEVKKPGASVKVSCKVSGYTFASHYIHWVRQAPGKGLEWMGGMDPATGQTIYAQKFQGRVTMTEDTSTDTAYMELSSLKSEDTAVYYCAKGDRSSWYEVLSFQHWGQGTLVTVSSSGGSTITSYNVYYTKLSSSGTDIQMTQSPSSVSASVGDRVTITCRASQGISTDLAWYQQKPGKAPKLLIYDASILQRGVPSRFSGSGSGTDFTLTISSLQPEDFANYYCQQVRTYPFTFGGGTKVEIK
B14: Lib4_P2_H3_scFv (scFv, not shown: small tags and cut ends)
scFv: QVQLQESGPGLVKPSQTLSLTCTVSGSTFGDYAWSWIRQPPGKGLEWIGYINHIGNADYNPSLKSRVTMSVDTSKNQFSLKVNSVTAADTAVYYCARDGVESPEVPNYYYYGMDVWGQGTTVTVSSSGGSTITSYNVYYTKLSSSGTEIVMTQSPATLSLSPGERATLSCRASHSIGSNLAWYQQKPGQAPRLLIYDATNRAPGIPARFSGSGSGTDFTLTISSLEPEDFAVYYCQQSYTNPTFGGGTKVEIK
B15: Lib1_P1_D1_scFv (scFv, not shown: small tags and cut ends)
scFv: QVQLVQSGAEVKKPGASVKVSCKVSGDTFTDRYIHWVRQAPGKGLEWMGGINTIFGTAIYAQKFQGRVTMTEDTSTDTAYMELSSLKSEDTAVYYCAREGATVSTNFDYWGQGTLVTVSSSGGSTITSYNVYYTKLSSSGTDIQMTQSPSSVSASVGDRVTITCRASQDIRKSLAWYQQKPGKAPKLLIYDISNRPSGVPSRFSGSGSGTDFTLTISSLQPEDFANYYCQQGYSAPYGFGGGTKVEIK
B16: 8226_Lib8_scFv (scFv, not shown: small tags and cut ends)
scFv: EVQLVESGGGLVQPGRSLRLSCAASGFNFHNYDMHWVRQAPGKGLEWVSAISGGAVSTDYADSVEGRFTISRDNAKNSLYLQMNSLRAEDTAVYYCARSSWYGGQIDFWGQGTLVTVSSSGGSTITSYNVYYTKLSSSGTDIQMTQSPSSLSASVGDRVTITCRASQDISGWLAWYQQKPGKAPKLLIYAASSLQDGVPSRFSGSGSGTDFTLTISSLQPEDVATYYCQQSYRIPSTFGGGTKVEIK
B17: 1081_Lib8_scFv (scFv, not shown: small tags and cut ends)
scFv: EVQLVESGGGLVQPGRSLRLSCAASGFNFHNYDMHWVRQAPGKGLEWVSAISGGAVSTDYADSVEGRFTISRDNAKNSLYLQMNSLRAEDTAVYYCARSSWYGGQIDFWGQGTLVTVSSSGGSTITSYNVYYTKLSSSGTDIQMTQSPSSLSASVGDRVTITCRASESVSSWLAWYQQKPGKAPKLLIYGASTLEGGVPSRFSGSGSGTDFTLTISSLQPEDVATYYCQQAYRTPVTFGGGTKVEIK
B18: Lib8_P4_C10_scFv (scFv, not shown: small tags and cut ends)
scFv: EVQLVESGGGLVQPGRSLRLSCAASGFNFHNYDMHWVRQAPGKGLEWVSAISGSSDTMDYADSVEGRFTISRDNAKNSLYLQMNSLRAEDTAVYYCVRASWYGTFFDYWGQGTLVTVSSSGGSTITSYNVYYTKLSSSGTDIQMTQSPSSLSASVGDRVTITCRASQDISGWLAWYQQKPGKAPKLLIYAASSLQDGVPSRFSGSGSGTDFTLTISSLQPEDVATYYCQQSYRIPSTFGGGTKVEIK

biological target: T3, biotinylated human VWF cysteine knot (CK) domain construct (human, UniProt P04275 2724-2813, biotinylated in vitro (BirA) on the biotinylation tag; one N-glycan); test: SPR, scFv captured via anti-SV5, CK domain injected, pH 5.5, apparent Kd;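 further: scFvs from crude yeast supernatants captured on chip-bound anti-SV5 antibody, Kd computed as koff divided by kon, dimeric CK construct likely makes affinity appear higher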
T3 construct: Expressed in HEK293 EBNA cells; disulfide-linked homodimer; also called human VWF CK; human VWF CK domain; not shown: in vitro biotinylation tag, HRV-3C site and 3 VWF residues before the CK domain

Kd [nM] | Binder
21.6 | B1
0.03 | B2
1.79 | B3
0.018 | B4
0.029 | B5
1.33 | B6

biological target: T3, biotinylated human VWF cysteine knot …; test: SPR, scFv captured via anti-SV5, CK domain injected, pH 7.4, apparent Kd;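 further: scFvs from crude yeast supernatants printed on an amine-coupled anti-SV5 lawn, Kd computed as koff over kon, likely overestimating affinity because the CK construct is dimeric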
Description: (§1) Briefly, a sensor chip was activated and coupled with an anti-SV5 mouse monoclonal antibody using amine coupling. The soluble scFvs in crude yeast supernatants were printed on the anti-SV5 lawn. […] From the measured association (kₒₙ) and dissociation (koff) rate constants, an apparent equilibrium dissociation constant (Kd=koff/kₒₙ) was estimated. Due to the dimeric state of the CK construct and consequent possibility for simultaneous binding of captured scFv to both monomers in the CK dimer, the SPR setup was expected to overestimate the binding affinity.

Kd [nM] | Binder
6.56 | B1
0.077 | B2
9.25 | B3
0.051 | B4
0.073 | B5
7.56 | B6

Biological target: T1, biotinylated cynomolgus monkey VWF …
Test: as above
Description: as §1

Kd [nM] | Binder
1.8 | B1
0.052 | B2
5.24 | B3
0.205 | B4
0.032 | B5
2.67 | B6

Biological target: T2, biotinylated human VWF cysteine knot …
Test: SPR, scFv captured on anti-SV5, pH 7.4

binding result | Binder
binds | B7
binds | B8
binds | B9
binds | B10
binds | B11
binds | B12
binds | B13
binds | B14
binds | B15
binds | B16
binds | B17
binds | B18

Reference: patent publication US20250154283A1 (published 2025)
